# Laboratory results from patent US20030129189A1, “Tumor necrosis factor-gamma” (priority 1994, published 2003).
# T1: TNF-gamma-beta (Homo sapiens, UniProt O95150)
# T1 construct: made in house; host or cells: 293T cells, transient transfection
# T1 sequence (O95150 72-251 limits assumed): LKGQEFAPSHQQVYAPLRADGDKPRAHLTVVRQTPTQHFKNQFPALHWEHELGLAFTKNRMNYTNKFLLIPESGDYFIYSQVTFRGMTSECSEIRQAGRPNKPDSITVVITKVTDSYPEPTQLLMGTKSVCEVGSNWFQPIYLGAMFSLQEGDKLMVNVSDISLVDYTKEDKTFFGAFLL
# T2: TNF-gamma-beta (Homo sapiens, UniProt O95150)
# T2 construct: made in house; host or cells: E. coli (untagged) or 293T (FLAG-tagged)
# T2 sequence (O95150 72-251): T1 sequence (O95150 72-251 limits assumed)
# B1: TNF-beta: tumor necrosis factor beta (lymphotoxin), control cytokine (protein, UniProt P01374 35-205, looked up)
# Lymphotoxin-alpha: LPGVGLTPSAAQTARQHPKMHLAHSTLKPAAHLIGDPSKQNSLLWRANTDRAFLQDGFSLSNNSLLVPTSGIYFVYSQVVFSGKAYSPKATSSPLYLAHEVQLFSSQYPFHVPLLSSQKMVYPGLQEPWLHSMYHGAAFQLTQGDQLSTHTDGIPHLVLSPSTVFFGAFAL
# Experiments:
# [1] = system: adult bovine aortic endothelial (ABAE) cells; test: In vitro angiogenesis assay (capillary-like tubes on collagen gels); assay type: cell-based; settings: control
# TNF-gamma-beta [2] = target: T1, TNF-gamma-beta; test: Coimmunoprecipitation of TNF-gamma-beta by TNFR-Fc proteins; assay type: binding
# Excerpt: The beads were then precipitated and washed extensively with PBST buffer (PBS, 0.5% Triton X-100) before boiled in SDS-sample buffer. Proteins were resolved on 4-20% Tris-Glycine gels (NOVEX), transferred to nitrocellulose membranes, and blotted with anti-Flag M2 monoclonal antibody (1 microgram/ml, Sigma) andhorseradish peroxidase (HRP)-conjugated goat anti-mouse IgG antibody (0.5 microgram/ml).
# TNF-gamma-beta [3] = target: T1, TNF-gamma-beta; test: Neutralization of TNF-gamma-beta induced SEAP production in TF-1/SRE reporter cells; assay type: cell-based; settings: TNF-gamma-beta at 200 ng/mL, TF1/SRE reporter cells
# Experimental: Briefly, a poly-D-lysine coated 96-well plate is seeded with TF-1/SRE-SEAP cells (in RPMI+0.2% Fetal bovine serum) at 75,000 cells per well. […] Again cells were incubated overnight. After overnight incubation, conditioned media were collected and SEAP activity was determined using the SEAP Reporter Gene Assay available from Roche Molecular Biochemicals (Indianapolis, Ind.) according to the manufacturer's directions. Briefly, Conditioned media were diluted 1:4 into dilution buffer. Samples were incubated at 65C for 30 minutes to eliminate contaminating AP activity usually present in culture medium. 25 microliters of the heat-inactivated samples were mixed with equal volume of inactivation buffer (containing a mixture of differential alkaline phosphatase inhibitors). Following a 5-minute incubation at room temperature, 50 uL of alkaline phosphatase substrate (CSPD) was added to each well. Chemiluminescence signal was read 10-15 minutes later using a luminometer.
# These solutions were then incubated for 1 hour at room temperature. […] After the overnight incubation, the SEAP assay was performed as described above.
# The premyeloid cell line TF-1 was stably transfected with SRE/SEAP (Signal Response Element/Secreted Alkaline Phosphatase) reporter plasmid that responds to the SRE signal transduction pathway.
# TNF-gamma-beta [4] = target: T2, TNF-gamma-beta; test: Inhibition of TNF-gamma-beta activation of NF-κB in 293T cells; assay type: cell-based
# Experimental: To avoid spontaneous apoptosis or NF-κB activation accompanied with DR3 overexpression, a limited amount of DR3-expression DNA that by itself minimally activated these pathways was used.
# 293T cells were transiently transfected using LipofectAMINE and PLUS reagents according to the manufacturer's instruction (Invitrogen). For reporter assays, 293T cells, at 5×10^5 cells/well, were seeded in 6-well plates and transfected with a total of 1 microgram of DNA. pC4 DNA was used as filler DNA. Conditioned supernatant was collected 24 hr post-transfection and assayed for secreted alkaline phosphatase (SEAP) activity using the Phospha-Light™ chemiluminescent reporter gene assay system (Tropix). pCMV-lacZ was used as internal control for transfection efficiency normalization.
# WEHI 164 cells = test: Measurement of apoptosis (nucleosome ELISA); assay type: cell-based, mouse; settings: increasing amounts (FIG. 12)
# Experimental: In a first incubation step, anti-histone antibody was fixed adsorptively on the wall of a microtiter plate module. Subsequently, non-specific binding sites on the wall were saturated by treatment with incubation buffer (e.g., blocking solution). During the second incubation step, the nucleosomes contained in the WEHI 164 cell sample treated with the TNF-alpha, TNF-beta or bacterially-produced TNF-gamma were bound via their histone components to the immobilized anti-histone antibody. In the third incubation step, anti-DNA-peroxidase (POD) reacted with the DNA component of the nucleosomes. After removal of all unbound peroxidase conjugate by a washing step, the amount of peroxidase retained in the immunocomplex was determined spectrophotometrically using the substrate ABTS (2,2′-azino-di-[3-ethylbenzthiazoline sulfonate]). Anti-histone antibody reacted with the histones H1, H2A, H2B, H3, and H4 from the sample. Anti-DNA POD antibody bound to single- and double-stranded DNA. Therefore, the ELISA allowed the detection of mono- and oligonucleosomes and may be applied to measure apoptotic cell death. The level of cell death was measured by the amount of cytoplasmic histone-associated DNA fragments which was indicated by the ratio of the absorbances observed at 405 and 490 nm (A405/A490). […]
molecule,measurement,setting,value
FGF-2: angiogenic factor FGF-2,EC50 value to stimulate in vitro angiogenesis,[1],about 5 ng/ml
same,concentration of maximum stimulatory effect on in vitro angiogenesis,[1],10 ng/mL
DR3.Fc: extracellular domain of human DR3 (aa 1-199) fused to the Fc domain of human IgG1,immunoprecipitation of TNF-gamma-beta,TNF-gamma-beta [2],can be used to immunoprecipitate TNF-gamma-beta
same,neutralization of TNF-gamma-beta SEAP activity by receptor-Fc,TNF-gamma-beta [3],interacts with TNF-gamma-beta
same,inhibition of TNF-gamma-beta activation of NF-κB,TNF-gamma-beta [4],able to inhibit
B1,"apoptosis (cytoplasmic histone-associated DNA fragments, A405/A490)",WEHI 164 cells,also observed in the presence of increasing amounts
